Measurements as given in the supplement of paper PMC12764529.
± gives the half width of the 95% confidence interval.

Columns and labels:
[1] = folding stability dG unfold (combined trypsin and chymotrypsin); higher = more stable
In short: (§1)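 Bayesian fitting of sequencing counts gave K50 for each design. Unfolding free energy followed by setting this against a sequence-predicted unfolded-state K50 and a shared folded-state K50, either per protease or with trypsin and chymotrypsin combined. The designs, under 80 residues and lacking cysteine, were digested in a PA-tagged cDNA display format at 11 threefold-diluted protease concentrations and without protease, and only those with AlphaFold2 dimer inter-PAE above 15 were kept.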

[2] = folding stability dG unfold from chymotrypsin proteolysis; higher = more stable
In short: as §1

[3] = folding stability dG unfold from trypsin proteolysis; higher = more stable
In short: as §1

Sequence | folding stability dG unfold [1] | folding stability dG unfold [2] | folding stability dG unfold [3]
YKAKITSVSFIPGEGYIVFNVEVIGPDGIPATFPIVIKIEIEPEEPDPAPPVIKDPNGKVYNPIIPKWFDAS [r1_270_TrMRF] | 2.13 ± 0.09 kcal/mol | 2.38 ± 0.054 kcal/mol | 1.5 ± 0.043 kcal/mol
SGIGEMSPEEIAKRLAEELGLSGIEVSVSTEGNTLTIPVKAKDPVKNEEITITITITPENGGKIKITTAGSA [r9_1042_JUSTAS] | 0.444 ± 0.21 kcal/mol | 0.299 ± 0.057 kcal/mol | 0.397 ± 0.12 kcal/mol
SAGGSAGGSAGGSMVITMTEEEIKALLPPGAKVKVEVVEDEETKEKFVRVEVYPAKEEESAGGSAGGSAGGS [r4_119_TrROS_Hall] | 0.0851 ± 0.21 kcal/mol | -0.429 ± 0.15 kcal/mol | 0.0616 ± 0.059 kcal/mol
SAGMKIEEKDGYLVITFKTKEEAEEAAKKLKELFPDAEIVEIKVEKDENGNETVTIVIKLKNLSPEALKSAG [r5_857_TrROS_Hall] | 1.85 ± 0.23 kcal/mol | 2.04 ± 0.12 kcal/mol | 1.53 ± 0.077 kcal/mol
PANVTYEFELADGYRVRVTLNPETGTATVEVEPVPERPPVAPVFIPRTLPEEEREALRRAAEEAGLEVVVGS [r1_242_TrMRF] | 3.06 ± 0.054 kcal/mol | 3.348 ± 0.031 kcal/mol | 2.42 ± 0.036 kcal/mol
SAGGSAGGSATTIEITLPDGTKAVTLSTTSENSILLLVTAPDSPSLGFIDKNNPNNIILLKSAGGSAGGSAG [r3_450_JUSTAS] | 0.627 ± 0.093 kcal/mol | 0.623 ± 0.1 kcal/mol | 0.467 ± 0.054 kcal/mol
SAGGSAGGSAGGEEKTEEEKRKEERLKPAPPLVLELDVEVDGKLYRFRLVNGKLEIEELPSAGGSAGGSAGG [r7_156_TrROS_Hall] | 2.56 ± 0.11 kcal/mol | 2.98 ± 0.038 kcal/mol | 1.71 ± 0.047 kcal/mol
SAGSMEELIANGGTISEERTLPGGEKVFTTTTLTYAPDGTPVINTETTVTTTPPDGTTTPSTSTSTVPLSAG [r5_24_JUSTAS] | 1.04 ± 0.035 kcal/mol | 0.957 ± 0.058 kcal/mol | 1.04 ± 0.038 kcal/mol
SPVVLPLTLGDRPILARLYPGEGVLEVRDPDGRLVGRATVTPNRINLVFRALDDDTTLVFELPVLPPDDPSA [r9_963_TrMRF] | 1.84 ± 0.12 kcal/mol | 1.82 ± 0.045 kcal/mol | 1.66 ± 0.07 kcal/mol
SAGGYYKDPNGKPREPVPKVEPKPVTITFPNLTPEQADYLADYLRDLGLEVKYDPENGMLTAEFWIYSAGGS [r16_765_TrROS] | 1.71 ± 0.11 kcal/mol | 1.95 ± 0.077 kcal/mol | 1.23 ± 0.033 kcal/mol
SAGGSVKVELKGDYLVITIPVEVPGDKDKPALLTIVIDLSPNGKPARIEMRSLETGKPLGEFTIDLSAGGSA [r2_412_TrMRF] | 2.43 ± 0.07 kcal/mol | 2.63 ± 0.04 kcal/mol | 2.14 ± 0.099 kcal/mol
SAGGSASVKIEVTVSPEQPDLTEEEAKAALTLTLPDGRPVKVEVLEVKPVPGSTVLLVEVEENVLLSAGGSA [r15_331_JUSTAS] | 1.13 ± 0.079 kcal/mol | 0.487 ± 0.073 kcal/mol | 1.64 ± 0.061 kcal/mol
SAGVPLSSVPESEVAEEVEFPKHGLKLLRDTATGKWYLQEGDTATVIPPEEAAKLLAEIKAPKPSPELLSAG [r14_516_JUSTAS] | 1.2 ± 0.082 kcal/mol | 1.01 ± 0.083 kcal/mol | 1.33 ± 0.073 kcal/mol
SAGMVRIELRPRPDGRPIALIDVGAPGGPPRRFEIEVDETETLDDIAERLRAEGFDLPEGIDLEELAGSAGG [r19_263_TrMRF] | 1.91 ± 0.044 kcal/mol | 2.243 ± 0.011 kcal/mol | 1.08 ± 0.018 kcal/mol
SAGSSPSLVLKVEIPVEIKEKRKFLLPNGETKTELTTRTITHTIVVEAGTDPAKLEEALALAEEIKEKKSAG [r14_830_JUSTAS] | -0.276 ± 0.25 kcal/mol | 0.00535 ± 0.31 kcal/mol | -0.85 ± 0.57 kcal/mol
SAGGSAGGSAGMINPKDVVEVSSSTDPNSSSGTLTVTLKDGKEITISYSSSSEAEAALLGSAGGSAGGSAGG [r11_339_JUSTAS] | 1.44 ± 0.2 kcal/mol | 1.52 ± 0.12 kcal/mol | 1.1 ± 0.061 kcal/mol
SAGGSAGGLIEEILKEIGLSPEEVVKVEVEPIEEKENSLTVRVTAEFLLPDGSKKKIEAEFEIGSAGGSAGG [r6_774_TrMRF] | 1.21 ± 0.11 kcal/mol | 1.13 ± 0.082 kcal/mol | 1.1 ± 0.06 kcal/mol
SAGGSAGGSAGGGNPFLVRTEFFTLPDNTVIRRLAVVHSDGSLSVFPSLLPVPPNSLKLSAGGSAGGSAGGS [r10_280_TrMRF] | 0.914 ± 0.053 kcal/mol | 1.18 ± 0.087 kcal/mol | 0.412 ± 0.041 kcal/mol
SARTLTITVPPGYRARVVVTLENGEPLELEVPPSESVTLTIPPGVPALVRVEVFYPDGSVGEFEVEVDDSAG [r14_568_TrMRF] | 4.79 ± 0.2 kcal/mol | 4.76 ± 0.14 kcal/mol | 4.65 ± 0.25 kcal/mol
SAGGSAAPVPVGAELAAAAPGAAVTVELPDGVTATVTRVGDTLVVDVTRFSEPPLPVSSATATLPLSAGGSA [r15_558_JUSTAS] | 0.409 ± 0.05 kcal/mol | 0.638 ± 0.028 kcal/mol | -0.369 ± 0.066 kcal/mol
APARPPDWVLVDVPVDPTSGLITVHAGDATVTVDLPDGRPAVFYFPRSVSPSDLLAWVVGKARELAEALRAS [r1_25_TrMRF] | 2.23 ± 0.16 kcal/mol | 2.32 ± 0.19 kcal/mol | 1.9 ± 0.085 kcal/mol

Sequence | folding stability dG unfold [1] | folding stability dG unfold [2] | folding stability dG unfold [3]
SAGGMATITVTSDGVLKVTFVDPATGSPVKTIPLPLSEVEQLGAEKGSPLSLEEILKELGYPTEITLGSAGG [r13_836_JUSTAS] | 1.51 ± 0.045 kcal/mol | 1.48 ± 0.008 kcal/mol | 1.52 ± 0.059 kcal/mol
SAGGSAGGSSMTLTIEPPEEGPPLLVEVDETEEIVTGDGTPVKVTTLKITIGEEEMTLTVTTLSAGGSAGGS [r20_39_JUSTAS] | 2.1 ± 0.15 kcal/mol | 2.46 ± 0.057 kcal/mol | 1.71 ± 0.098 kcal/mol
SGSTTLKTTTIPEGPLTVETTISPDGVVTGTIYDPEGKKIADYTMTYTWTTLPNGEKRLETVTVTINLGLSA [r9_434_JUSTAS] | 2.35 ± 0.07 kcal/mol | 2.55 ± 0.063 kcal/mol | 1.9 ± 0.05 kcal/mol
SGMEQKVEVLRVGAPGEEAVTRFTFKFEDKEFTLEASARLPDGSLVLLDFHVYRDPEGTFRVDVVVYPGFSA [r9_255_TrMRF] | 2.93 ± 0.1 kcal/mol | 3.27 ± 0.043 kcal/mol | 2.01 ± 0.069 kcal/mol
SAGGSAGGSADNWFIQIKWRHPENGKKRTLHIPFKTPWDVEEIVEELAPPGMDEVEVKIYPFSAGGSAGGSA [r18_258_TrROS] | 1.03 ± 0.061 kcal/mol | 1.25 ± 0.091 kcal/mol | 0.707 ± 0.051 kcal/mol
SAGMDIIKELLEKNPKPKVIRMHMNPPNGYFRIQVNGKPIDLPLPPGHYEMEFVVDPKGKIEDVKPHPMSAG [r5_329_TrROS] | 0.462 ± 0.16 kcal/mol | 0.51 ± 0.16 kcal/mol | 0.0656 ± 0.15 kcal/mol
SAGGSAGGKKLTAEELAKKLKELIPDVEKVEIVSVDKKTKKVTIKVKTKKEKEKIKEALKELLKSAGGSAGG [r6_635_TrROS_Hall] | 0.65 ± 0.1 kcal/mol | 0.816 ± 0.048 kcal/mol | 0.56 ± 0.064 kcal/mol
SAGGSAGGSWMLMVKIEFPENGQERHFMLPPGMTIEDIADRLREDGAPIKDIEVQWMPLPPGDSAGGSAGGS [r12_955_TrROS] | 1.62 ± 0.072 kcal/mol | 1.62 ± 0.086 kcal/mol | 1.47 ± 0.033 kcal/mol
SAGADSVTYDPETNLVVVYRRVGDDVEVLVLEPVPLPVVVVVPVEDAVTRNPELRPLLEQNPDFYLVFPSAG [r5_957_TrMRF] | 2.13 ± 0.051 kcal/mol | 2.248 ± 0.022 kcal/mol | 1.88 ± 0.036 kcal/mol
SAGGSAGGSASFTTTPVQFPDNTRVTTVTLDPETGTTIATVTSPSATSLVTIPGDTTTLTGSSAGGSAGGSA [r18_212_JUSTAS] | 0.286 ± 0.045 kcal/mol | -0.246 ± 0.087 kcal/mol | 0.551 ± 0.023 kcal/mol
SAGGSAGGSAGGKAKIEMESETIPFKNDDGEKYYIQIMRFEVEVGGKKVTATAISIMPLDSAGGSAGGSAGG [r7_248_TrROS] | 2.98 ± 0.4 kcal/mol | 3.53 ± 0.16 kcal/mol | 2.22 ± 0.22 kcal/mol
SAGGSAGGSAGKNMVEIEMMFVLPDGWFIKTSLRINPDKPGRIHEVEIEIRKIPPNDEQISAGGSAGGSAGG [r17_299_TrROS] | 4.06 ± 0.19 kcal/mol | 4.31 ± 0.17 kcal/mol | 3.51 ± 0.24 kcal/mol
PPLKIKMERYPNGMMKIDKIEVPNDGSIKLTLKFPNNGRKIERTIPPNAPPGQEKEIWFPFPNGFYRLKIES [r1_43_TrROS] | 0.32 ± 0.23 kcal/mol | 0.291 ± 0.26 kcal/mol | 0.0375 ± 0.24 kcal/mol
SMEDMSVEELLELLREKLREAREKGKSLEDIKITIVIVAETEEEKEAIAKALKEEFPEIKEIKIEVLPPESA [r9_341_TrROS_Hall] | 2.92 ± 0.26 kcal/mol | 2.64 ± 0.15 kcal/mol | 3.06 ± 0.14 kcal/mol
SAGGSAGGSAGGPEIITFRNPGNGVTLMVWRTPNNITVSIYNPDGPQKEIPIPPGEPIFSAGGSAGGSAGGS [r10_976_TrROS] | 0.875 ± 0.19 kcal/mol | 0.971 ± 0.36 kcal/mol | 0.833 ± 0.098 kcal/mol
SAGGSAGGSAKIRVGGEEIELPPGKPVMFRFPENGYMIKITIKPDPKENKWKIDELKVYPMDSAGGSAGGSA [r18_222_TrROS] | 1.46 ± 0.19 kcal/mol | 1.83 ± 0.16 kcal/mol | 1.13 ± 0.089 kcal/mol
SAGGSAGGSAEKKKVTIRIVVKPEDVEEILKAIEELLPPGAKATIKVFDKNGELIAEFEFEVSAGGSAGGSA [r18_188_TrROS_Hall] | 2.86 ± 0.12 kcal/mol | 3.09 ± 0.25 kcal/mol | 2.5 ± 0.17 kcal/mol
SAGGSAGGSAGGDLLRDLPGLELRIETVTVTERYFDEDGELVEEREETVTRIELRRPGEESAGGSAGGSAGG [r7_614_TrROS_Hall] | 1.75 ± 0.2 kcal/mol | 2.15 ± 0.1 kcal/mol | 0.383 ± 0.2 kcal/mol
SAGGSAGGSAGKRYTFFIPVPPDEMTPEDLVDWIEKIFPDFKGKEIKVEVMPDGYVRIKIEYSAGGSAGGSA [r18_65_TrROS] | 3.56 ± 0.097 kcal/mol | 3.89 ± 0.044 kcal/mol | 3.08 ± 0.069 kcal/mol
SAGGSAGGSAGGKVIDSEEFRNNFPSGGVLVDNNGNLYLVGNNYPIDPNQPFLYVSPDEISAGGSAGGSAGG [r7_507_TrMRF] | 1.23 ± 0.22 kcal/mol | 1.56 ± 0.17 kcal/mol | 0.959 ± 0.086 kcal/mol
SAGGGKKNKIVAVDEEGNEIVFDIDADIDTVFEAIKKLFPNKEIEVDEVIEFEGYPDYVVVFVKIPKKSAGG [r13_832_TrMRF] | 2.22 ± 0.22 kcal/mol | 2.59 ± 0.069 kcal/mol | 1.72 ± 0.14 kcal/mol
